For the assay, the target named is T1, pallilysin (Tp0751_C24-P237) (Treponema pallidum, UniProt O83732 24-237).
T1 sequence (looked up): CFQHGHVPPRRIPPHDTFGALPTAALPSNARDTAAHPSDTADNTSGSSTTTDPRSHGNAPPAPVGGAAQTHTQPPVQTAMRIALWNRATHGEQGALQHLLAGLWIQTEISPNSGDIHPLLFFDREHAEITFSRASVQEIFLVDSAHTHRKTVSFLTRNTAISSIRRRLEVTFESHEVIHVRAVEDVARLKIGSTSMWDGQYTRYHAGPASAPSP
The assay can be described thus: dynamic light scattering.

B1: recombinant Tp0750_G23-D223 (natural protein, UniProt O83731 23-223, looked up)
chain: GERTVPVDIFLMIDKSRSMQEPGKFSSLHRWVRDEFVSSMTIQGDWITVYQFYEKPEELITLTLRSEQDRDKIISVVDSIVPNGRYTDIGRALDTVWEIQEKRKDNNRHKVLLLVTDLEHDAPLTSKYRGKQRSFQSPYLVRARRVKHDNWYEITLDMAVHDRVAHTARELYRSIAAAHSKRPTPTPPAKESSPRYTPSLD
In the case of B1, the binding result is reported as “binds”.

Values taken from publication PMC3954913 (Molecular microbiology, 2014).
